From patent US20180201654A1 (UNIVERSITY OF SOUTHERN CALIFORNIA, published 2018)

What was measured:
[1] = molecular target: T1, vIRF4 (Kaposi's-sarcoma-associated-herpesvirus vIRF4), full length wild type (Kaposi's-sarcoma-associated-herpesvirus …, UniProt Q2HR73 1-911); assay: co-immunoprecipitation from transfected 293T cells, IP: V5, IB: Flag
T1 sequence: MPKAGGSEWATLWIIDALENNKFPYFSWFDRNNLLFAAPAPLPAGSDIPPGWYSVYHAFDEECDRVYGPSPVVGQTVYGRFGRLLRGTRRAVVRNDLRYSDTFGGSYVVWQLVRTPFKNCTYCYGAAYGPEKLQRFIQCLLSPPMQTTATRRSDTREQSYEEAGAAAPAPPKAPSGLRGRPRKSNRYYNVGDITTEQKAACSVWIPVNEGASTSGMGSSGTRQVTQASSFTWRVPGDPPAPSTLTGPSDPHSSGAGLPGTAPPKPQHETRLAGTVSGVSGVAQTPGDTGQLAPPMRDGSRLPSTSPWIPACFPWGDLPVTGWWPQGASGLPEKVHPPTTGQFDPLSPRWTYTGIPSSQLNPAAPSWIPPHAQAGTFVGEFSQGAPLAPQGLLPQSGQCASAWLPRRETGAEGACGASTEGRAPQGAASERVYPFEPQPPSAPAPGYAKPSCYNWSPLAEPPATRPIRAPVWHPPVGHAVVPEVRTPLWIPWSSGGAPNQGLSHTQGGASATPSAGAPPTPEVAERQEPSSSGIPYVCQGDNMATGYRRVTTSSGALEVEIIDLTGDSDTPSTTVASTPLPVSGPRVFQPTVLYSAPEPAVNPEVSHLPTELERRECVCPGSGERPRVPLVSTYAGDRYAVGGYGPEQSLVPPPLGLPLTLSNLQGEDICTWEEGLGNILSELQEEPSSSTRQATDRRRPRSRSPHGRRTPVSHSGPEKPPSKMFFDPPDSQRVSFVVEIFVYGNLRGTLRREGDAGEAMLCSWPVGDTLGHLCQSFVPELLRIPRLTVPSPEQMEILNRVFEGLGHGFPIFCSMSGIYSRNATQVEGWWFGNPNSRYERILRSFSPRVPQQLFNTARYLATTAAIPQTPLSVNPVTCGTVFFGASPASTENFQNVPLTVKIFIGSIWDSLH

[2] = molecular target: T2, HAUSP TRAF domain (HAUSP^62-205) (human, UniProt Q93009 62-205); assay: ITC
T2 construct: also called TRAF-like domain of HAUSP

[3] = molecular target: T2, HAUSP TRAF domain (HAUSP^62-205); assay: ITC, titration against the HAUSP TRAF domain, 20 C
[4] = molecular target: T3, HAUSP (Herpes virus-associated ubiquitin-specific protease), full length (human, UniProt Q93009 1-1102); assay: co-transfection in 293T cells (Flag-HAUSP with V5-vIRF4 constructs)
T3 construct: also called USP7; Flag-HAUSP

T2 sequence (Q93009 62-205): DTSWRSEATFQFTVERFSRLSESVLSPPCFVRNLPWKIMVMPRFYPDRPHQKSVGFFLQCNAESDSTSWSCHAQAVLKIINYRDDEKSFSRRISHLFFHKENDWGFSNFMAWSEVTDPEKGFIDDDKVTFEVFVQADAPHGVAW

B1: Flag/HAUSP 205-1108 (enzyme)
single chain: WDSKKHTGYVGLKNQGATCYMNSLLQTLFFTNQLRKAVYMMPTEGDDSSKSVPLALQRVFYELQHSDKPVGTKKLTKSFGWETLDSFMQHDVQELCRVLLDNVENKMKGTCVEGTIPKLFRGKMVSYIQCKEVDYRSDRREDYYDIQLSIKGKKNIFESFVDYVAVEQLDGDNKYDAGEHGLQEAEKGVKFLTLPPVLHLQLMRFMYDPQTDQNIKINDRFEFPEQLPLDEFLQKTDPKDPANYILHAVLVHSGDNHGGHYVVYLNPKGDGKWCKFDDDVVSRCTKEEAIEHNYGGHDDDLSVRHCTNAYMLVYIRESKLSEVLQAVTDHDIPQQLVERLQEEKRIEAQKRKERQEAHLYMQVQIVAEDQFCGHQGNDMYDEEKVKYTVFKVLKNSSLAEFVQSLSQTMGFPQDQIRLWPMQARSNGTKRPAMLDNEADGNKTMIELSDNENPWTIFLETVDPELAASGATLPKFDKDHDVMLFLKMYDPKTRSLNYCGHIYTPISCKIRDLLPVMCDRAGFIQDTSLILYEEVKPNLTERIQDYDVSLDKALDELMDGDIIVFQKDDPENDNSELPTAKEYFRDLYHRVDVIFCDKTIPNDPGFVVTLSNRMNYFQVAKTVAQRLNTDPMLLQFFKSQGYRDGPGNPLRHNYEGTLRDLLQFFKPRQPKKLYYQQLKMKITDFENRRSFKCIWLNSQFREEEITLYPDKHGCVRDLLEECKKAVELGEKASGKLRLLEIVSYKIIGVHQEDELLECLSPATSRTFRIEEIPLDQVDIDKENEMLVTVAHFHKEVFGTFGIPFLLRIHQGEHFREVMKRIQSLLDIQEKEFEKFKFAIVMMGRHQYINEDEYEVNLKDFEPQPGNMSHPRPWLGLDHFNKAPKRSRYTYLEKAIKIHN
notes: N-terminal deletion fragment without the TRAF domain
Q: Does B1 bind [1]?
A: no binding

B2: vIRF4^153-256 (other)
chain: SDTREQSYEEAGAAAPAPPKAPSGLRGRPRKSNRYYNVGDITTEQKAACSVWIPVNEGASTSGMGSSGTRQVTQASSFTWRVPGDPPAPSTLTGPSDPHSSGAG
Q: What does the source list for B2?
A: fold higher affinity (against vIRF4^153-216 and vIRF4^202-216) [2]: 7 fold; Ka [3]: 1.32e+07 M⁻¹; Kd [3]: 76 nM; TΔS [3]: -10.1 kcal/mol; n [3]: 1.13; ΔG [3]: -7.64 kcal/mol; ΔH [3]: -17.7 kcal/mol

B3: vIRF4Δ^202-256 mutant (other)
chain: MPKAGGSEWATLWIIDALENNKFPYFSWFDRNNLLFAAPAPLPAGSDIPPGWYSVYHAFDEECDRVYGPSPVVGQTVYGRFGRLLRGTRRAVVRNDLRYSDTFGGSYVVWQLVRTPFKNCTYCYGAAYGPEKLQRFIQCLLSPPMQTTATRRSDTREQSYEEAGAAAPAPPKAPSGLRGRPRKSNRYYNVGDITTEQKAACLPGTAPPKPQHETRLAGTVSGVSGVAQTPGDTGQLAPPMRDGSRLPSTSPWIPACFPWGDLPVTGWWPQGASGLPEKVHPPTTGQFDPLSPRWTYTGIPSSQLNPAAPSWIPPHAQAGTFVGEFSQGAPLAPQGLLPQSGQCASAWLPRRETGAEGACGASTEGRAPQGAASERVYPFEPQPPSAPAPGYAKPSCYNWSPLAEPPATRPIRAPVWHPPVGHAVVPEVRTPLWIPWSSGGAPNQGLSHTQGGASATPSAGAPPTPEVAERQEPSSSGIPYVCQGDNMATGYRRVTTSSGALEVEIIDLTGDSDTPSTTVASTPLPVSGPRVFQPTVLYSAPEPAVNPEVSHLPTELERRECVCPGSGERPRVPLVSTYAGDRYAVGGYGPEQSLVPPPLGLPLTLSNLQGEDICTWEEGLGNILSELQEEPSSSTRQATDRRRPRSRSPHGRRTPVSHSGPEKPPSKMFFDPPDSQRVSFVVEIFVYGNLRGTLRREGDAGEAMLCSWPVGDTLGHLCQSFVPELLRIPRLTVPSPEQMEILNRVFEGLGHGFPIFCSMSGIYSRNATQVEGWWFGNPNSRYERILRSFSPRVPQQLFNTARYLATTAAIPQTPLSVNPVTCGTVFFGASPASTENFQNVPLTVKIFIGSIWDSLH
Q: Does B3 bind [4]?
A: no binding
